First the molecules themselves.
B1: GST-Rab5 wild-type [canine] / Myc3-iSH2-p110β (wild type) [bovine | human] (parent)
chain 1: LYEDYTRTSQEIQMKRTAIEAFNETIKIFEEQCQTQERYSKEYIEKFKREGNETEIQRIMHNYEKLKSRISEIVDSRRRLEEDLKKQAAEYREIDKRMNSIKGGGGGGGMCFSFIMPPAMADILDIWAVDSQIASDGSIPVDFLLPTGIYIQLEVPREATISYIKQMLWKQVHNYPMFNLLMDIDSYMFACVNQTAVYEELEDETRRLCDVRPFLPVLKLVTRSCDPGEKLDSKIGVLIGKGLHEFDSLKDPEVNEFRRKMRKFSEEKILSLVGLSWMDWLKQTYPPEHEPSIPENLEDKLYGGKLIVAVHFENCQDVFSFQVSPNMNPIKVNELAIQKRLTIHGKEDEVSPYDYVLQVSGRVEYVFGDHPLIQFQYIRNCVMNRALPHFILVECCKIKKMYEQEMIAIEAAINRNSSNLPLPLPPKKTRIISHVWENNNPFQIVLVKGNKLNTEETVKVHVRAGLFHGTELLCKTIVSSEVSGKNDHIWNEPLEFDINICDLPRMARLCFAVYAVLDKVKTKKSTKTINPSKYQTIRKAGKVHYPVAWVNTMVFDFKGQLRTGDIILHSWSSFPDELEEMLNPMGTVQTNPYTENATALHVKFPENKKQPYYYPPFDKIIEKAAEIASSDSANVSSRGGKKFLPVLKEILDRDPLSQLCENEMDLIWTLRQDCREIFPQSLPKLLLSIKWNKLEDVAQLQALLQIWPKLPPREALELLDFNYPDQYVREYAVGCLRQMSDEELSQYLLQLVQVLKYEPFLDCALSRFLLERALGNRRIGQFLFWHLRSEVHIPAVSVQFGVILEAYCRGSVGHMKVLSKQVEALNKLKTLNSLIKLNAVKLNRAKGKEAMHTCLKQSAYREALSDLQSPLNPCVILSELYVEKCKYMDSKMKPLWLVYNNKVFGEDSVGVIFKNGDDLRQDMLTLQMLRLMDLLWKEAGLDLRMLPYGCLATGDRSGLIEVVSTSETIADIQLNSSNVAAAAAFNKDALLNWLKEYNSGDDLDRAIEEFTLSCAGYCVASYVLGIGDRHSDNIMVKKTGQLFHIDFGHILGNFKSKFGIKRERVPFILTYDFIHVIQQGKTGNTEKFGRFRQCCEDAYLILRRHGNLFITLFALMLTAGLPELTSVKDIQYLKDSLALGKSEEEALKQFKQKFDEALRESWTTKVNWMAHTVRKDYRS
chain 2: ANRGATRPNGPNTGNKICQFKLVLLGESAVGKSSLVLRFVKGQFHEFQESTIGAAFLTQTVCLDDTTVKFEIWDTAGQERYHSLAPMYYRGAQAAIVVYDITNEESFARAKNWVKELQRQASPNIVIALSGNKADLANKRAVDFQEAQSYADDNSLLFMETSAKTSMNVNEIFMAIAKKLPKNEPQNPGANSARGRGVDLTEPTQPTRSQCCSN

The values below come from PMC5700975.

A value given as a limit tells only on which side of the number the result lay.

One assay covers variants of B1. Nature of the assay: GST pull-down (summary table). Conditions: with Myc3-iSH2-p110β (wild type) [bovine | human]; n=7; parent: 100.
For chain 2 Y88A, the percent of parent was under 25 % binding.
The same measure, in the same setting: the value for chain 2 Q78L was under 25 % binding.

Still in this assay, the particulars now being: with Myc3-iSH2-p110β (wild type) [bovine | human]; n=6; parent: 100.
For the variant chain 2 Y81A, the percent of parent was under 25 % binding.

The assay is the same for the next values; noted with them: with Myc3-iSH2-p110β (wild type) [bovine | human]; n=4; parent: 100.
Consider chain 2 I52A, for which the percent of parent was under 25 % binding.
Still for that read-out and setting: the value for chain 2 R90E was under 25 % binding.

The variants in a further assay derive from B1. Nature of the assay: GST pull-down, anti-Myc immunoblot quantification. Conditions: with Myc3-iSH2-p110β (wild type) [bovine | human]; GST-Rab5 fusion proteins (10 µg) on glutathione Sepharose beads, GppCp-loaded; Myc-iSH2-p110β from transfected COS-1 lysates; parent: 100; read off a plot. (In general: In western blotting, separated proteins are transferred to a membrane and probed.)
chain 2 Q78L: the percent of parent turned out to be 20 % WT.

Variants of B1 are the subject of another assay. As to the kind of experiment: GST pull-down (summary table). Conditions: with Myc3-iSH2-p110β (wild type) [bovine | human]; n=9; parent: 100.
As for chain 2 H82E, the percent of parent is under 25 % binding.
Still for that read-out and setting: the value for chain 2 E79R was under 25 % binding.

Staying with this assay, now noted: with Myc3-iSH2-p110β (wild type) [bovine | human]; n=8; parent: 100.
Consider chain 2 R80E, for which the percent of parent was under 25 % binding.

The assay is the same for the next values; noted with them: with Myc3-iSH2-p110β (wild type) [bovine | human]; n=5; parent: 100.
For the variant chain 2 W73A, the percent of parent is under 25 % binding.
On the same count and under the same terms, the value for chain 2 M87A was under 25 % binding.
Still for that read-out and setting: then chain 2 F56A, with under 25 % binding.

The assay is the same for the next values; noted with them: with Myc3-iSH2-p110β (wild type) [bovine | human]; n=10; parent: 100.
On to chain 2 L84A, for which the percent of parent was under 25 % binding.
